Assay results published in patent US20250235548A1 (Zymeworks, published 2025).
Blank lines part the entries; values can stand above or below the binder they belong to.

What was measured:
[1] = target: T1, KLH (Sigma-Aldrich, H8283); assay: NS-ELISA, plate coated with KLH, mAb at 100 nM; ratio of signal to a buffer well
T1 construct: Coating protein of the non-specific ELISA (NS-ELISA)
Procedure: NS-ELISA was used to measure the propensity of the antibodies to bind to a range of biomolecules to emulate the undesirable non-specific interactions to biological matrices in vivo as described below.
NS-ELISA was carried out in Corning@ 96-well EIA/RIA Easy Wash™ Clear Flat Bottom Polystyrene High Bind Microplate coated overnight at 4° C. with 50 μL of Heparin (Sigma, H3149) diluted with 50 mM sodium carbonate pH 9.6 to a final concentration of 250 μg/mL. The plate was incubated for 2 days at room temperature, wells that were coated with heparin were not covered to allow air dry. […] 50 μL each of insulin, KLH, dsDNA and ssDNA were added to a 96 well plate, followed by the incubation at 37° C. for 2 h. The coating materials were removed, and the plate was blocked with 200 μL of Gibco™ PBS pH7.4, 0.1% Tween®20, and incubated for 1 h at room temperature with shaking at 200 rpm. The plate was washed 3 times with Gibco™ PBS pH7.4, 0.1% Tween 20. 50 μL of each mAb at 100 nM (15 mg/mL) in Gibco™ PBS pH 7.4, 0.1% Tween®20 was added in duplicate to the wells and incubated for 1 h at room temperature with shaking at 200 rpm. […] Plates were incubated for 1 h at room temperature, with shaking at 200 rpm. The plate was washed three times with Gibco™ PBS pH7.4, 0.1% Tween 20, and 100 μL of TMB substrate (Cell Signaling Technology©, 7004P6) added to each well. […] Binding scores were calculated as the ratio of the ELISA signal of the antibody to the signal of a well containing buffer instead of the primary antibody. The cutoffs considered for each binding molecule (ssDNA. KLH, Insulin, dsDNA and Heparin) were internally calculated, based on the average of Zymeworks Inc. produced antibodies and antibodies benchmarks published in the literature.

[2] = target: T2, human sodium-dependent phosphate transporter 2B (NaPi2b) (human, UniProt O95436 1-690); assay: KinExA, IGROV-1 cells, monovalent format
T2 construct: also called hNaPi2b; Hu NaPi2b
T2 sequence: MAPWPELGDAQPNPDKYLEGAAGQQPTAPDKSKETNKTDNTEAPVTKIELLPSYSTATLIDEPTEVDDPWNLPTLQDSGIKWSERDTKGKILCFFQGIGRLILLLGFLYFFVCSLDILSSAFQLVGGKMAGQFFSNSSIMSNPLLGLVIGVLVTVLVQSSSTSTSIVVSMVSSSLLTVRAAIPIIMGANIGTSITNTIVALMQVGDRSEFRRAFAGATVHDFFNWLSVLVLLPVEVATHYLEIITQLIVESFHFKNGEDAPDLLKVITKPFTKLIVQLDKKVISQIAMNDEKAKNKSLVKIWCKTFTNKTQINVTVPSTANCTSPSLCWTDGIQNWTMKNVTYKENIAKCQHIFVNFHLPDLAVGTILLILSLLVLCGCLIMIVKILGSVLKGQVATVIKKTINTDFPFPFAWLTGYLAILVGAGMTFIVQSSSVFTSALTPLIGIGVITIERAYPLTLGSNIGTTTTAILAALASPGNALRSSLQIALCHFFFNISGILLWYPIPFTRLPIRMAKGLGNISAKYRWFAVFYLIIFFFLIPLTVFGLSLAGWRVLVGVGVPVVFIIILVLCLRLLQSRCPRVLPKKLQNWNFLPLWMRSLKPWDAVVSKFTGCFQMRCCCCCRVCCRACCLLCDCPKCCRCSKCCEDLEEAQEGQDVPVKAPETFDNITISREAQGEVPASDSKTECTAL
Procedure: The cell-binding assay was set up using the antibody constructs or variants as constant binding partner at two different concentrations of 50 μM and 500 μM. For the titration curve with antibody variants fixed at 50 μM, at least 10 million IGROV-1 cells were used as titrant. For the titration curve with antibody variants fixed at 500 μM, at least 5 million cells were used as titrant. The antibody variants and cells were mixed in PBS pH 7.4, 1 mg/mL BSA, 0.2% NaN₃ and incubated at 4° C. for 7 days with gentle rotation until equilibrium was reached. After incubation, the mixture of antibody variants and cells was centrifuged to separate the cells from the unbound free antibody variants.
N-curve analysis was used to calculate the affinity and receptor expression level with the concentrations of antibody variant as reference point.

[3] = target: T2, human sodium-dependent phosphate …; assay: cell-based or functional assay
cynomolgus monkey NaPi2b = target: T3, cynomolgus monkey NaPi2b (cynomolgus monkey, UniProt O95436 1-690 (human entry)); assay: flow cytometry, HEK293-6e cells transfected with cynomolgus NaPi2b
T3 construct: also called Cyno NaPi2b; Cy NaPi2b
T3 chain: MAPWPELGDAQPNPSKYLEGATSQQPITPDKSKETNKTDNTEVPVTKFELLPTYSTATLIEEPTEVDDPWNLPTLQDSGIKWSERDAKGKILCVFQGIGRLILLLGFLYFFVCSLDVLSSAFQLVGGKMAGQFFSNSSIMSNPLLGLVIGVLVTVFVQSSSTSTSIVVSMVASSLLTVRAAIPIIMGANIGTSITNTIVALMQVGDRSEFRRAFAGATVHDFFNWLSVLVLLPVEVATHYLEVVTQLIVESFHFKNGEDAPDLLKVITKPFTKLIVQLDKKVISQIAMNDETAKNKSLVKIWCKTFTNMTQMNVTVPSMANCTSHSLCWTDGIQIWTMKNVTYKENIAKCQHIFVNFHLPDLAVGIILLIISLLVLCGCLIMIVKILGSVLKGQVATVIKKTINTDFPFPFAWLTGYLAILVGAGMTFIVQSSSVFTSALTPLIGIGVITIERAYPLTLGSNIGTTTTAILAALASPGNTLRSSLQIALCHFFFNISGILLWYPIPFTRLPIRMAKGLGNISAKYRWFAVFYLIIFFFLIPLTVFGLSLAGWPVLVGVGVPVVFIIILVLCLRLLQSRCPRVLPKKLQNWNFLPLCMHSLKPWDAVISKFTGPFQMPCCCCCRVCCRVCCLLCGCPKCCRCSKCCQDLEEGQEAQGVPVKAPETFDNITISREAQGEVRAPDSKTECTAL

- NS-ELISA binding score [1]: 1.34
B1: v29452 humanized anti-NaPi2b antibody (antibody, human IgG1, kappa, V domains shown)
VH: QVQLVQSGAEVKKPGASVKVSCKASGFTFTSYNVHWVRQAPGQGLEWMGAISPGNGDLSYAQKFQGRVTMTRDTSTSTVYMELSSLRSEDTAVYYCARGRTGMGAVDYWGQGTLVTVSS
VL: DVQMTQSPSSLSASVGDRVTITCRASQDVYSYLNWYQQKPGKAVKLLIYYTSRLQSGVPSRFSGSGSGTDYTLTISSLQPEDIATYYCQQYNIFPWTFGQGTKLEIKR
notes: Full-size IgG1/kappa; also called H1L3

- fold lower binding affinity than chimeric parental antibody construct [2]: ~2 fold
B2: v36123, monovalent format of humanized antibody variant 29452 (antibody, V domains shown)
VH: QVQLVQSGAEVKKPGASVKVSCKASGFTFTSYNVHWVRQAPGQGLEWMGAISPGNGDLSYAQKFQGRVTMTRDTSTSTVYMELSSLRSEDTAVYYCARGRTGMGAVDYWGQGTLVTVSS
VL: DVQMTQSPSSLSASVGDRVTITCRASQDVYSYLNWYQQKPGKAVKLLIYYTSRLQSGVPSRFSGSGSGTDYTLTISSLQPEDIATYYCQQYNIFPWTFGQGTKLEIK
notes: also called VH1/VL3

- Internalized Fluorescence Fold-Over Palivizumab, HCC-78, 5 hrs, 10 nM [3]: 25.3 fold
- Internalized Fluorescence Fold-Over Palivizumab, HCC-78, 24 hrs, 10 nM [3]: 59.9 fold
- Internalized Fluorescence Fold-Over Palivizumab, NCI-H441, 5 hrs, 10 nM [3]: 2.4 fold
- Internalized Fluorescence Fold-Over Palivizumab, NCI-H441, 24 hrs, 10 nM [3]: 4 fold
- fold lower apparent Kd than v18992 (MX35) (cynomolgus monkey NaPi2b): 10 fold
- fold lower apparent Kd than v18993 (lifastuzumab) (cynomolgus monkey NaPi2b): 2 fold
- NS-ELISA binding score [1]: 1.37
B3: v29456 humanized anti-NaPi2b antibody (antibody, human IgG1, kappa)
heavy: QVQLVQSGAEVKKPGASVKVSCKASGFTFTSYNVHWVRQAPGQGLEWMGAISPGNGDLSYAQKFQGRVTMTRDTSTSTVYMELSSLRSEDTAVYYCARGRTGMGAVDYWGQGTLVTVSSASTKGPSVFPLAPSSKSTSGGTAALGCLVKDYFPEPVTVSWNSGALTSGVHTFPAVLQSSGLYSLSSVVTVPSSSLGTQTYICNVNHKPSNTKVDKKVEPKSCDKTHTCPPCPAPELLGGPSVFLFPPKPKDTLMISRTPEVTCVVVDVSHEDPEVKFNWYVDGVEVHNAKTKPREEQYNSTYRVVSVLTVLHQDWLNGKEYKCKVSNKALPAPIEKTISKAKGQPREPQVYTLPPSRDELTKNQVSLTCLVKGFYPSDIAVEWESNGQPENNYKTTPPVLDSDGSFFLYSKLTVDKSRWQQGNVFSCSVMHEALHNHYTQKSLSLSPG
light: DVQMTQSPSSLSASVGDRVTITCRASQDVYSYLNWYQQKPGKAVKLLIYYTSRLQSGVPSRFSGSGSGTDYTLTISSLQPEDFATYYCQQYNIFPWTFGQGTKLEIKRTVAAPSVFIFPPSDEQLKSGTASVVCLLNNFYPREAKVQWKVDNALQSGNSQESVTEQDSKDSTYSLSSTLTLSKADYEKHKVYACEVTHQGLSSPVTKSFNRGEC
notes: Full-size IgG1/kappa; also called H1L2

- fold lower binding affinity than chimeric parental antibody construct [2]: ~2 fold
B4: v36124, monovalent format of humanized antibody variant 29456 (antibody, V domains shown)
VH: QVQLVQSGAEVKKPGASVKVSCKASGFTFTSYNVHWVRQAPGQGLEWMGAISPGNGDLSYAQKFQGRVTMTRDTSTSTVYMELSSLRSEDTAVYYCARGRTGMGAVDYWGQGTLVTVSS
VL: DVQMTQSPSSLSASVGDRVTITCRASQDVYSYLNWYQQKPGKAVKLLIYYTSRLQSGVPSRFSGSGSGTDYTLTISSLQPEDFATYYCQQYNIFPWTFGQGTKLEIK
notes: also called VH1/VL2

- NS-ELISA binding score [1]: 2.38
B5: v23855, parental mouse-human chimeric anti-NaPi2b antibody (antibody, human IgG1, kappa, V domains shown)
VH: QAYLQQSGAELVRPGASVKMSCKASGFTFTSYNVHWVKQTPRQGLEWIAAISPGNGDLSYNQRFKDKATLTVDRSSSTAYMQLSGLTSEDSAVYFCARGRTGMGAVDYWGQGTSVTVSS
VL: DVQMTQTASSLSASLGDRVTISCRASQDVYSYLNWYQQKPHGTVKLLIYYTSRLQSGVPSRFTGSGSGTDYSLTISNLEPEDIATYYCQQYNIFPWTFGGGTKLEIKR
notes: Full-size antibody; also called parental chimeric
